These results are taken from article PMC8291497 (ACS Chemical Biology, 2021).

Assay [1] concerns the target T1, Mint2 PARM 364-570 (Y524W, Y543A) (Homo sapiens, UniProt Q99767, Y524W/Y543A).
T1 sequence (Q99767 364-570 Y524W/Y543A): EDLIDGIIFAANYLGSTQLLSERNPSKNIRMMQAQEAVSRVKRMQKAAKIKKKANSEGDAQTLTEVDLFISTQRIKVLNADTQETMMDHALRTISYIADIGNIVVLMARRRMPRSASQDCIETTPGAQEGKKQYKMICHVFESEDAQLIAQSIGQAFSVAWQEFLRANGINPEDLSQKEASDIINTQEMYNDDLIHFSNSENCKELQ
Nature of the assay: biochemical.

In assay [2] the target is T2, Mint2 PARM 364-570 (Y524W, Y543E) (Homo sapiens, UniProt Q99767, Y524W/Y543E).
T2 sequence (Q99767 364-570 Y524W/Y543E): T1 sequence (Q99767 364-570 Y524W/Y543A) with A180E
Nature of the assay: biochemical.

The target in the next assay is Mint2 PARMWT 364-570 (Homo sapiens, UniProt Q99767). Nature of the assay: biochemical.
Mint2 PARMWT 364-570, sequence (Q99767 364-570): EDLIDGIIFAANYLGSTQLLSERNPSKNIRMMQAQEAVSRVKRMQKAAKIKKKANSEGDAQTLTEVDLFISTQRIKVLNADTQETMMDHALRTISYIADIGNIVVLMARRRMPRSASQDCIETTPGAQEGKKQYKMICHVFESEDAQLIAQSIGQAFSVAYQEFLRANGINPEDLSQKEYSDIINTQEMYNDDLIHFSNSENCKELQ
Assay [3] concerns the target T3, PARM-pWT (364-570; R455K, C483A, C501A, Y524W, C566A) (Homo sapiens, UniProt Q99767, C483A/C501A/C566A/R455K/Y524W).
T3 construct: made in house; host or cells: semisynthesis, three-segment approach (expressed fragments plus synthetic segment)
T3 sequence (Q99767 364-570 R455K/C483A/C501A/Y524W/C566A): T1 sequence (Q99767 364-570 Y524W/Y543A) with R92K, C120A, C138A, A180Y, C203A
Description: Stopped flow binding kinetics, APP A-to-E variants to PARM-pWT. The protocol: (§1) Kinetic binding rate constants were obtained using an upgraded SX17 stopped flow spectrometer (Applied Photophysics), and all experiments were conducted at 25 °C in 500 mM NaCl and 25 mM HEPES (pH 7.4). The relatively high NaCl concentration was used to improve the solubility of the proteins. The change in tryptophan fluorescence was measured using a band-pass filter (excitation at 280 nm and emission at 330 ± 30 nm) when mixing varying concentrations (2–50 μM) of the dansyl peptides with 1 μM protein or 0.5 μM semisynthetic proteins. […] For PTB variants, we used the kobs value from the fast kinetic phase for the analysis. […] We report the errors in kon and koff from the curve fitting. […] For these koff determinations, we report the standard error of the mean of three replicates. Φ values were defined as ΔΔGTS/ΔΔGeq, where ΔΔGTS = RT ln(kon^WT/kon^mut.) and ΔΔGeq = RT ln(Kd^mut./Keq^WT). Calculated coupling free energies were defined as ΔΔΔGEq = RT ln(Kd^mut.:WTKd^WT:mut./Kd^WT:WTKd^mut.:mut.) or ΔΔΔGTS = RT ln(kon^WT:WTkon^mut.:mut./kon^mut.:WTkon^WT:mut.) as previously described.[27] Propagated errors are reported.

Assay [4] addresses T4, Mint2 PARM 364-570 (Y524W), pWT PARM (PTB domain and ARM linker) (Homo sapiens, UniProt Q99767, Y524W).
T4 construct: made in house; host or cells: Escherichia coli BL21(DE3)pLysS
T4 sequence (Q99767 364-570 Y524W): T1 sequence (Q99767 364-570 Y524W/Y543A) with A180Y
Description: Stopped flow binding kinetics, APP peptides to PARM (pseudo-wild type). As for the experimental part:
as §1

Assay [5] deals with T1, Mint2 PARM 364-570 (Y524W, Y543A). Description: Stopped flow binding kinetics, APP peptides to PARM^Y543A. Also on record: made in house; host or cells: Escherichia coli BL21(DE3)pLysS. As for the experimental part:
as §1

For assay [6], the target named is T5, Mint2 PTB 364-538 (without the ARM linker) (Homo sapiens, UniProt Q99767, Y524W).
T5 construct: made in house; host or cells: Escherichia coli BL21(DE3)pLysS
T5 sequence (Q99767 364-538 Y524W): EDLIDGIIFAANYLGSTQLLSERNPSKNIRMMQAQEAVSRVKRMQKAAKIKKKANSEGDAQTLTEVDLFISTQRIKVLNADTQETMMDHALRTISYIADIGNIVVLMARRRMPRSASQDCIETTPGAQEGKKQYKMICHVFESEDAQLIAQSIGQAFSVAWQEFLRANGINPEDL
Nature of the assay: Stopped flow binding kinetics, APP peptides to PTB. As for the experimental part: as §1

Assay [7] deals with PTB without the ARM linker (Mint2 residues 364-538) (human, UniProt Q99767 364-538, Y524W). Nature of the assay: stopped-flow fluorescence kinetics. Conditions: both partners purified.
A further assay addresses PARM^Y543E (human, UniProt Q99767 364-570, Y524W | Y543E). Description: stopped-flow fluorescence kinetics. Conditions: both partners purified.
Assay [8] addresses pseudo-wild type (pWT) PARM domain of Mint2 (residues 364-570, Y524W) (human, UniProt Q99767 364-570, Y524W). Nature of the assay: stopped-flow fluorescence kinetics. Conditions: both partners purified.
The next assay deals with PARM^Y543A (human, UniProt Q99767 364-570, Y524W | Y543A). Description: stopped-flow fluorescence kinetics. Conditions: both partners purified.

Changes are numbered by the printed parent chain. In names and notes the source's numbering stands. Where a SMILES comes first, the peptide text is derived from it. Where no end group is shown, it is not given here. [ ]: non-standard residue; d: D form. The star is where a group is joined. Dansyl = CN(C)c1cccc2c(S(=O)(=O)*)cccc12; PhLac = O=C(O)[C@@H](O)Cc1ccccc1

PARM^Y543E, sequence (Q99767 364-570 Y524W/Y543E): as the sequence (Q99767 364-570) above, with Y161W, Y180E counted along it
pseudo-wild type (pWT) PARM domain of Mint2 (residues 364-570, Y524W), sequence (Q99767 364-570 Y524W): as the sequence (Q99767 364-570) above, with Y161W counted along it

Broadly, the Ki is a measure of affinity in units of concentration, obtained from inhibition or displacement. Take NGYENPTYKFFE [APPWT (12-mer)]: the Ki in assay [1] was 1.1 µM; in [2], 1.1 µM; on Mint2 PARMWT 364-570, 3.2 µM.
Consider “Dansyl-NNG-NGψENPTYKFFE [Peptide Y757ψ, dansyl-APP peptide with amide-to-ester backbone modification at Y757]”, for which the “kinetic transient in the stopped flow experiment” value in assay [3] (most likely due to a kobs outside the range of the instrument (>300 s^–1)) is given as “did not give a kinetic transient”.
On to `C[C@@H](O)[C@H](NC(=O)[C@@H]1CCCN1C(=O)[C@H](CC(N)=O)NC(=O)[C@H](CCC(=O)O)NC(=O)[C@H](Cc1ccc(O)cc1)NC(=O)CNC(=O)[C@H](CC(N)=O)NC(=O)CNC(=O)[C@H](CC(N)=O)NC(=O)[C@H](CC(N)=O)NS(=O)(=O)c1cccc2c(N(C)C)cccc12)C(=O)N[C@@H](Cc1ccccc1)C(=O)N[C@@H](CCCCN)C(=O)N[C@@H](Cc1ccccc1)C(=O)N[C@@H](Cc1ccccc1)C(=O)N[C@@H](CCC(=O)O)C(=O)O` [Peptide Y762F], for which the Kd in assay [4] is 4 µM.
Molecule `C[C@@H](O)[C@H](NC(=O)[C@@H]1CCCN1C(=O)[C@H](CC(N)=O)NC(=O)[C@H](CCC(=O)O)NC(=O)[C@H](Cc1ccc(O)cc1)NC(=O)CNC(=O)[C@H](CC(N)=O)NC(=O)CNC(=O)[C@H](CC(N)=O)NC(=O)[C@H](CC(N)=O)NS(=O)(=O)c1cccc2c(N(C)C)cccc12)C(=O)N[C@@H](Cc1ccc(O)cc1)C(=O)NCC(=O)N[C@@H](Cc1ccccc1)C(=O)N[C@@H](Cc1ccccc1)C(=O)N[C@@H](CCC(=O)O)C(=O)O` [Peptide K763G] displayed a Kd in assay [5] of 10 ± 0.3 µM.
In turn, `C[C@@H](O)[C@H](NC(=O)[C@@H]1CCCN1C(=O)[C@H](CC(N)=O)NC(=O)[C@H](CCC(=O)O)NC(=O)[C@H](Cc1ccccc1)NC(=O)CNC(=O)[C@H](CC(N)=O)NC(=O)CNC(=O)[C@H](CC(N)=O)NC(=O)[C@H](CC(N)=O)NS(=O)(=O)c1cccc2c(N(C)C)cccc12)C(=O)N[C@@H](Cc1ccc(O)cc1)C(=O)N[C@@H](CCCCN)C(=O)N[C@@H](Cc1ccccc1)C(=O)N[C@@H](Cc1ccccc1)C(=O)N[C@@H](CCC(=O)O)C(=O)O` [Peptide Y757F] had a Kd in assay [6] of 0.6 µM.
By koff is commonly meant a measure of how fast the partners let go of each other. Broadly, the kon is a measure of how fast the partners come together. In [3], `C[C@@H](O)[C@H](NC(=O)[C@@H]1CCCN1C(=O)[C@H](CC(N)=O)NC(=O)[C@H](CCC(=O)O)NC(=O)[C@H](Cc1ccc(O)cc1)NC(=O)CNC(=O)[C@H](CC(N)=O)NC(=O)CNC(=O)[C@H](CC(N)=O)NC(=O)[C@H](CC(N)=O)NS(=O)(=O)c1cccc2c(N(C)C)cccc12)C(=O)N[C@@H](Cc1ccc(O)cc1)C(=O)N[C@@H](CCCCN)C(=O)N[C@@H](Cc1ccccc1)C(=O)O[C@@H](Cc1ccccc1)C(=O)N[C@@H](CCC(=O)O)C(=O)O` [Peptide F765φ] (Dansyl-NNGNGYENPTYKF[PhLac]E-OH; N-terminus and C-terminus assumed) gave a Kd of 40 ± 9 µM and a koff of 27 s⁻¹. Also, the “F (Φ value, ΔΔGTS/ΔΔGeq)” value in assay [3] (APP A-to-E variant vs Dansyl-APPWT) was ~0. The molecule also returned a kon in assay [3] (pH 7.4) of 690000 M⁻¹ s⁻¹.

B1: dansyl-APP F764A (peptide)
peptide: Dansyl-NGYENPTYKAFE
For B1, the binding result (in [7]; with PARM^Y543E; in assay [8]; with PARM^Y543A) was “binds” throughout.

B2: dansyl-APP F765A (peptide)
peptide: Dansyl-NGYENPTYKFAE
B2: the binding result (in assay [7]; with PARM^Y543E; in assay [8]; with PARM^Y543A) was “binds” in each case.

B3: dansyl-APP P760A (peptide)
peptide: Dansyl-NGYENATYKFFE
For B3, the binding result (in [7]; with PARM^Y543E; in [8]; with PARM^Y543A) was “binds” throughout.

B4: dansyl-APP P760G (peptide)
peptide: Dansyl-NGYENGTYKFFE
Turning to B4, the binding result (in assay [7]; with PARM^Y543E; in assay [8]; with PARM^Y543A) was “binds” each time.

B5: dansyl-APP F765G (peptide)
peptide: Dansyl-NGYENPTYKFGE
B5: the binding result (in assay [7]; in the assay with PARM^Y543E; in assay [8]; in the assay with PARM^Y543A) was “binds” in each case.

B6: dansyl-APP Y762F (peptide)
peptide: Dansyl-NGYENPTFKFFE
As for B6, the binding result (in assay [7]; with PARM^Y543E; in assay [8]; in the assay with PARM^Y543A) was “binds” in each case.

B7: dansyl-APP F764G (peptide)
peptide: Dansyl-NGYENPTYKGFE
For the molecule B7, the binding result (in assay [7]; with PARM^Y543E; in [8]; with PARM^Y543A) was “binds” throughout.

B8: dansyl-APP K763A (peptide)
peptide: Dansyl-NGYENPTYAFFE
Take B8: the binding result (in assay [7]; with PARM^Y543E; in assay [8]; with PARM^Y543A) was “binds” throughout.

B9: dansyl-APP K763G (peptide)
peptide: Dansyl-NGYENPTYGFFE
As for B9, the binding result (in assay [7]; in the assay with PARM^Y543E; in assay [8]; with PARM^Y543A) was “binds” throughout.

B10: dansyl-APP Y757F (peptide)
peptide: Dansyl-NGFENPTYKFFE
As for B10, the binding result (in assay [7]; in the assay with PARM^Y543E; in assay [8]; with PARM^Y543A) was “binds” in each case.
